# Patent US20220143148A1, “COMPOSITIONS AND METHODS FOR MODULATING CGRP SIGNALING TO REGULATE INTESTINAL INNATE LYMPHOID CELLS” (The Broad Institute, Inc., priority 2019, published 2022)
# B1: OVA (protein, UniProt P01012 2-386, looked up)
# Ovalbumin: GSIGAASMEFCFDVFKELKVHHANENIFYCPIAIMSALAMVYLGAKDSTRTQINKVVRFDKLPGFGDSIEAQCGTSVNVHSSLRDILNQITKPNDVYSFSLASRLYAEERYPILPEYLQCVKELYRGGLEPINFQTAADQARELINSWVESQTNGIIRNVLQPSSVDSQTAMVLVNAIVFKGLWEKAFKDEDTQAMPFRVTEQESKPVQMMYQIGLFRVASMASEKMKILELPFASGTMSMLVLLPDEVSGLEQLESIINFEKLTEWTSSNVMEERKIKVYLPRMKMEEKYNLTSVLMAMGITDVFSSSANLSGISSAESLKISQAVHAAHAEINEAGREVVGSAEAGVDAASVSEEFRADHPFLFCIKHIATNAVLFFGRCVSP
# Test system: small intestinal immune cells
# Experiment: Droplet-based scRNA-seq of small intestinal immune cells (LP and PP), OVA vs PBS, clustering and differential expression
# Format: in vivo, mouse
# From the text: To comprehensively characterize small intestinal immune cells, Applicants generated scRNA-Seq profiles for 58,067 immune cells collected from lamina propria (LP) and Peyer's patch (PP) regions at steady state and after induction of a type 2 inflammatory reaction to ovalbumin (OVA) (Brandt et al., 2003) (FIGS. 1A and 8A). To ensure sufficient representation of rare cells, Applicants combined a normalization strategy—removing by flow sorting either a portion of IgD+ naïve B cells, which are the most abundant cell type in PPs, or all CD19+ and CD3+ T cells (FIG. 8B, Methods)—with profiling of a sufficiently large number of cells number (P>0.99 to recover at least 15 cells from each cluster, Methods) by massively parallel scRNA-seq (Haber et al., 2017) (Methods). Applicants obtained 36,797 and 21,270 high quality cells passing initial filtering (Methods) from PP and LP regions, respectively.
# Overall, Applicants annotated 27 cell subsets across the two compartments, spanning T cells, B cells, ILCs, dendritic cells (DCs), myeloid cells and stromal cells, in frequencies ranging from 0.07% to 14%. Briefly, Applicants first partitioned the cells from the PP regions by unsupervised clustering (Methods) into 46 clusters, retained the 97% of cells that were robustly assigned cell identities in each cluster (Methods), assigned the cells from the LP regions to the 46 clusters using a classifier (Methods), and visualized the data with scvis (Ding et al., 2018), a deep generative model-based method (FIGS. 1B and 8C, Methods). Next, Applicants identified genes that were differentially expressed between the cells in each cluster and the remaining cells (Table 1, Methods), as well as between pairs of clusters (Table 2), to elucidate identities of similar cell types/states. Applicants excluded from downstream analysis clusters mostly consisting of contaminants from epithelium, likely doublets, or cells with a small number of Unique Molecular Identifiers (UMIs) (FIGS. 1C and 8D), or lacking distinct markers (Methods). Altogether, Applicants retained 27 clusters spanning 85% of the cells and each associated with distinct marker genes (FIG. 8E, Methods).
# To induce allergic reaction to OVA, 6 to 7 weeks old mice were sensitized twice, two weeks apart, with 50 μg of OVA plus 1 mg of aluminum potassium sulfate adjuvant via intraperitoneal injection. Two weeks later, mice were orally administered with 50 mg of OVA on every other day for a total of five times. 1 μg of α-CGRP peptide was administered simultaneously when indicated. Mice were deprived of food for 3-4 hours in cages with wood chip bedding for limiting antigen degradation in the stomach before each intragastric challenge.
# Isolation of cells from Peyer's patches (PPs). Peyer's patches (PPs) were carefully dissected from the small intestine under a stereo microscope using a fine scissor, pierced once with a fine forcep. Tissues were digested in freshly made digestion buffer (RPMI-1640 containing 100 μg/ml Liberase™ and 50 μg/ml DNase I at 37° C. on a roto-mixer. After 15 min, tissues were very gently mixed using a 1 ml pipette. The supernatant was collected and added to ice-cold MACS buffer (pH 7.4; PBS plus 2% FCS and 2 mM EDTA). Pre-warmed (37° C.) fresh digestion buffer was added to the remaining tissues. After rotation at 37° C. for 15 min, the mixture was vigorously mixed using a 1 ml pipette for 1 min. Supernatants from the two steps were combined and passed through 70 μm filters and stained for FACS (below).
# Isolation of cells from the lamina propria (LP). The small intestines were opened longitudinally and washed in ice-cold PBS. For scRNA-seq, roughly 0.5 cm of fragments from each of the distal, middle and proximal regions without visible PPs were collected. Epithelial cells were dissociated by tissue rotation in pre-warmed (37° C.) PBS containing 10 mM EDTA at 37° C. for 15 min, followed by additional incubation on ice for 15 min. Tissues were then shaken vigorously. […]
molecule,measurement,setting,value
B1,Tsc22d3 LN (average fold change),"PP, cluster ID 9, OVA vs PBS",1.031
same,Tubb5 LN (average fold change),"PP, cluster ID 9, OVA vs PBS",−0.244
same,Uba52 LN (average fold change),"PP, cluster ID 9, OVA vs PBS",0.365
same,Ubb LN (average fold change),"PP, cluster ID 9, OVA vs PBS",−0.190
same,Wdr89 LN (average fold change),"PP, cluster ID 9, OVA vs PBS",0.469
same,Zfp36l2 LN (average fold change),"PP, cluster ID 9, OVA vs PBS",1.590
same,1110059E24Rik percentage of expressing cells in OVA-treated group,"PP, cluster ID 10",0.507
same,Apobec1 percentage of expressing cells in OVA-treated group,"PP, cluster ID 10",0.807
same,Basp1 percentage of expressing cells in OVA-treated group,"PP, cluster ID 10",0.755
same,Btg1 percentage of expressing cells in OVA-treated group,"PP, cluster ID 10",0.985
same,Cd47 percentage of expressing cells in OVA-treated group,"PP, cluster ID 10",0.602
same,Crlf3 percentage of expressing cells in OVA-treated group,"PP, cluster ID 10",0.658
same,Ddit4 percentage of expressing cells in OVA-treated group,"PP, cluster ID 10",0.296
same,Dusp1 percentage of expressing cells in OVA-treated group,"PP, cluster ID 10",0.451
same,Egln2 percentage of expressing cells in OVA-treated group,"PP, cluster ID 10",0.558
same,Hspa8 percentage of expressing cells in OVA-treated group,"PP, cluster ID 10",0.975
same,Igha percentage of expressing cells in OVA-treated group,"PP, cluster ID 10",0.405
same,Napsa percentage of expressing cells in OVA-treated group,"PP, cluster ID 10",0.776
same,Ppp1r21 percentage of expressing cells in OVA-treated group,"PP, cluster ID 10",0.165
same,Rsrp1 percentage of expressing cells in OVA-treated group,"PP, cluster ID 10",0.722
same,Sesn1 percentage of expressing cells in OVA-treated group,"PP, cluster ID 10",0.402
same,Sh3glb2 percentage of expressing cells in OVA-treated group,"PP, cluster ID 10",0.187
same,Tsc22d3 percentage of expressing cells in OVA-treated group,"PP, cluster ID 10",0.689
same,Ttc7 percentage of expressing cells in OVA-treated group,"PP, cluster ID 10",0.244
same,Uba52 percentage of expressing cells in OVA-treated group,"PP, cluster ID 10",0.985
same,Zfp36l2 percentage of expressing cells in OVA-treated group,"PP, cluster ID 10",0.68
same,1110059E24Rik LN (average fold change),"PP, cluster ID 10, OVA vs PBS",0.715
same,Apobec1 LN (average fold change),"PP, cluster ID 10, OVA vs PBS",0.309
same,Basp1 LN (average fold change),"PP, cluster ID 10, OVA vs PBS",−0.516
same,Btg1 LN (average fold change),"PP, cluster ID 10, OVA vs PBS",0.438
same,Cd47 LN (average fold change),"PP, cluster ID 10, OVA vs PBS",0.638
same,Crlf3 LN (average fold change),"PP, cluster ID 10, OVA vs PBS",0.396
same,Ddit4 LN (average fold change),"PP, cluster ID 10, OVA vs PBS",0.864
same,Dusp1 LN (average fold change),"PP, cluster ID 10, OVA vs PBS",0.614
same,Egln2 LN (average fold change),"PP, cluster ID 10, OVA vs PBS",0.624
same,Hspa8 LN (average fold change),"PP, cluster ID 10, OVA vs PBS",−0.286
same,Igha LN (average fold change),"PP, cluster ID 10, OVA vs PBS",0.162
same,Napsa LN (average fold change),"PP, cluster ID 10, OVA vs PBS",0.374
same,Ppp1r21 LN (average fold change),"PP, cluster ID 10, OVA vs PBS",1.045
same,Rsrp1 LN (average fold change),"PP, cluster ID 10, OVA vs PBS",−0.187
same,Sesn1 LN (average fold change),"PP, cluster ID 10, OVA vs PBS",1.071
same,Sh3glb2 LN (average fold change),"PP, cluster ID 10, OVA vs PBS",0.383
same,Tsc22d3 LN (average fold change),"PP, cluster ID 10, OVA vs PBS",1.088
same,Ttc7 LN (average fold change),"PP, cluster ID 10, OVA vs PBS",1.338
same,Uba52 LN (average fold change),"PP, cluster ID 10, OVA vs PBS",0.287
same,Zfp36l2 LN (average fold change),"PP, cluster ID 10, OVA vs PBS",1.856
same,Jund percentage of expressing cells in OVA-treated group,"PP, cluster ID 11",0.855
same,Jund LN (average fold change),"PP, cluster ID 11, OVA vs PBS",−0.624
same,1600014C10Rik: percentage of expressing cells in OVA-treated group,"cluster ID 4, PP",0.185
same,2010300C02Rik: percentage of expressing cells in OVA-treated group,"cluster ID 4, PP",0.518
same,2310001H17Rik: percentage of expressing cells in OVA-treated group,"cluster ID 4, PP",0.214
same,4921524J17Rik: percentage of expressing cells in OVA-treated group,"cluster ID 4, PP",0.161
same,Alyref: percentage of expressing cells in OVA-treated group,"cluster ID 4, PP",0.141
same,Amd1: percentage of expressing cells in OVA-treated group,"cluster ID 4, PP",0.192
same,Asb2: percentage of expressing cells in OVA-treated group,"cluster ID 4, PP",0.548
same,Azin1: percentage of expressing cells in OVA-treated group,"cluster ID 4, PP",0.135
same,Bin3: percentage of expressing cells in OVA-treated group,"cluster ID 4, PP",0.235
same,Bzw1: percentage of expressing cells in OVA-treated group,"cluster ID 4, PP",0.321
same,Cacybp: percentage of expressing cells in OVA-treated group,"cluster ID 4, PP",0.293
same,Cd69: percentage of expressing cells in OVA-treated group,"cluster ID 4, PP",0.737
same,Cdkn1a: percentage of expressing cells in OVA-treated group,"cluster ID 4, PP",0.256
same,Clec2d: percentage of expressing cells in OVA-treated group,"cluster ID 4, PP",0.261
same,Cwc25: percentage of expressing cells in OVA-treated group,"cluster ID 4, PP",0.12
same,D16Ertd472e: percentage of expressing cells in OVA-treated group,"cluster ID 4, PP",0.175
same,Dnaja1: percentage of expressing cells in OVA-treated group,"cluster ID 4, PP",0.705
same,Dnajb9: percentage of expressing cells in OVA-treated group,"cluster ID 4, PP",0.18
same,Egln3: percentage of expressing cells in OVA-treated group,"cluster ID 4, PP",0.172
same,Fam46a: percentage of expressing cells in OVA-treated group,"cluster ID 4, PP",0.099
same,Fibp: percentage of expressing cells in OVA-treated group,"cluster ID 4, PP",0.178
same,Furin: percentage of expressing cells in OVA-treated group,"cluster ID 4, PP",0.382
same,Gatad1: percentage of expressing cells in OVA-treated group,"cluster ID 4, PP",0.155
same,Gcnt2: percentage of expressing cells in OVA-treated group,"cluster ID 4, PP",0.144
same,Gimap3: percentage of expressing cells in OVA-treated group,"cluster ID 4, PP",0.536
same,Git2: percentage of expressing cells in OVA-treated group,"cluster ID 4, PP",0.3
same,Gnb1: percentage of expressing cells in OVA-treated group,"cluster ID 4, PP",0.419
